Test results: CN1800373A (RADIOLOGY INST OF PLA MILITARY, dated 2006)
Values belong to the molecule of their own block, whether it stands above or below them.

Key:
[1] = target: VEGFR-3/Ig重组蛋白 (R&D research system corp.) (human) (UniProt P35916); experiment: ELISA, coated VEGFR-3/Fc 0.5 μg/mL, negative control
正常人IgG (北京中杉金桥有限公司) = experiment: ELISA, coated normal human IgG 0.5 μg/mL, negative control
[2] = target: VEGFR-3/Ig重组蛋白 (R&D research system corp.) (human) (UniProt P35916); experiment: ELISA, coated VEGFR-3/Fc 0.5 μg/mL, scFv at 6.5 μg/mL
[3] = target: VEGFR-3/Ig重组蛋白 (R&D research system corp.) (human) (UniProt P35916); experiment: ELISA, coated VEGFR-3/Fc 0.5 μg/mL, scFv at 65 μg/mL
[4] = target: VEGFR-3/Ig重组蛋白 (R&D research system corp.) (human) (UniProt P35916); experiment: ELISA, coated VEGFR-3/Fc 0.5 μg/mL, scFv at 13 μg/mL
[5] = target: VEGFR-3/Ig重组蛋白 (R&D research system corp.) (human) (UniProt P35916); experiment: ELISA, coated VEGFR-3/Fc 0.5 μg/mL, supernatant of hybridoma BDD073
HEL细胞表面表达的VEGFR-3 = target: T1, HEL细胞表面表达的VEGFR-3 (human, UniProt P35916 25-1363); experiment: Western blot of HEL cell lysate (Fig. 4)
T1 construct: whole, on cells; On whole HEL cells in flow cytometry; in HEL cell lysate in the immunoblot; also called VEGFR-3多肽 (175kDa, 125kDa bands of HEL lysate)

[6] = target: T2, VEGFR-3/Ig重组蛋白 (R&D research system corp.) (human, UniProt P35916 25-776); experiment: ELISA-type assay, OD450; VEGFR-3/Fc 1 and 2 μg/mL mixed with 20 μg/mL GST-VEGF-D (Fig. 1)
T2 construct: Bought protein; also called VEGFR-3/Fc; VEGFR-3/IgG; not shown: Ig/Fc part of the bought fusion
T2 sequence (looked up): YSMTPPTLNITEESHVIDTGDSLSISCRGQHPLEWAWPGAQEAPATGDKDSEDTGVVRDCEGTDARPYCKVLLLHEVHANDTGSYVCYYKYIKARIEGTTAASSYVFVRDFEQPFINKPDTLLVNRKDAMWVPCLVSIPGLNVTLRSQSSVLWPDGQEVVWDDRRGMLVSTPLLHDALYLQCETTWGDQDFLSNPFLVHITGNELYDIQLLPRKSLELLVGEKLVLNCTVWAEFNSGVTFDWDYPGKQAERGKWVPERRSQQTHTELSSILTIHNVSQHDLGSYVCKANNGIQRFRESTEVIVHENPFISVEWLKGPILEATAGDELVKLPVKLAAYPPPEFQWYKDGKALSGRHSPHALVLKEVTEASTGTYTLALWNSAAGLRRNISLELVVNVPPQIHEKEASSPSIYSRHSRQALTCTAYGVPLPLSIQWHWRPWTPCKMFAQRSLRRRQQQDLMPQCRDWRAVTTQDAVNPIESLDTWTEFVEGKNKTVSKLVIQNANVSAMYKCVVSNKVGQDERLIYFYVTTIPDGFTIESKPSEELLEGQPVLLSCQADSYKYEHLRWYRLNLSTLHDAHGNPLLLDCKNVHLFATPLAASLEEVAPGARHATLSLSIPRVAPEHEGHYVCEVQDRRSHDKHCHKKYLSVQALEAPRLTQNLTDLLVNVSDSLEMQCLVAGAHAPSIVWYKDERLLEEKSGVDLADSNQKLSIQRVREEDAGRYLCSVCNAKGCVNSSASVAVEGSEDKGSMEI

- OD 450 [1]: 0.05 OD450
- OD 450 (正常人IgG (北京中杉金桥有限公司)): 0.064 OD450
Molecule: 正常鼠血清(1∶1000)

- OD 450 [2]: 0.515 OD450
- OD 450 [3]: 1.01 OD450
- OD 450 [4]: 0.73 OD450
B1: 可溶性抗VEGFR-3单链抗体VL-linker-VH (scFv, not shown: large carriers)
scFv: DIVLTQSPASLAVSLGQRATISCRASKSVSTFGYSYMHWYQQKPGQPPKLLIYLASNLESGVPARFSGSGSGTDFTLNIHPVEEEDAATYYCQHSRELMYTFGGGTKLEIKRGGGGSGGGGSGGSQVQLQESGGGLVRPRGSLKLSCAASGFTFNTYAMNWVRQAPGKGLEWIARIRNKSNNYATYYANSVKDRFTISRGDSQSMLYLQMNNLKTEDTAMYYCVRDGYSLVHWGHGTLVTVS

- OD 450 [5]: 0.889 OD450
- binding result (HEL细胞表面表达的VEGFR-3): binds
B2: 抗人VEGFR-3的单克隆抗体ABDD073 (antibody, mouse IgG2a, V domains shown)
VH: QVQLQESGGGLVRPRGSLKLSCAASGFTFNTYAMNWVRQAPGKGLEWIARIRNKSNNYATYYANSVKDRFTISRGDSQSMLYLQMNNLKTEDTAMYYCVRDGYSLVHWGHGTLVTVS
VL: DIVLTQSPASLAVSLGQRATISCRASKSVSTFGYSYMHWYQQKPGQPPKLLIYLASNLESGVPARFSGSGSGTDFTLNIHPVEEEDAATYYCQHSRELMYTFGGGTKLEIKR
notes: The 132-residue entry was amplified with a primer that starts at ATG, so it may hold a leader; also called BDD073上清; monoclonal antibody of hybridoma BDD073 CGMCC No.1537

- binding result [6]: binds
B3: 重组人GST-VEGF-D (ligand, human, UniProt O43915 89-205, looked up)
chain: FAATFYDIETLKVIDEEWQRTQCSPRETCVEVASELGKSTNTFFKPPCVNVFRCGGCCNEESLICMNTSTSYISKQLFEISVPLTSVPELVPVKVANHTGCKCLPTAPRHPYSIIRR
notes: domain: VHD; Expressed in E. coli BL21(DE3), 38 kD, purified on a GST column; not shown: GST tag encoded by vector pGEX-5X-1 (Amersham)
